# Experimental data from publication PMC9391306.
# Read-outs that look alike come from different tables or passages of the source.
# B1: 12-bp palindromic duplex (dsDNA)
# DNA 1: ATGCGGCCGCAT
# DNA 2: ATGCGGCCGCAT
# B2: 10-bp palindromic duplex (dsDNA)
# DNA 1: GCCTGCAGGC
# DNA 2: GCCTGCAGGC
# B3: 18-bp DSB duplex (dsDNA)
# DNA 1: GGGTTGCGGCCGCTTGGG
# DNA 2: CCCAAGCGGCCGCAACCC
# B4: 5-bp duplex (dsDNA)
# DNA 1: CGACG
# DNA 2: CGTCG
# Assays:
# [1] = target: PARP1 Zn1;PARP1 Zn3;PARP1 WGR-HD (Homo sapiens?;Homo sapiens?;Homo …, UniProt P09874;P09874;P09874 1-96;216-366;527-786, ||del663-676); assay: X-ray crystallography
# [2] = target: T1, PARP1 Zn1-Zn3 (linked);PARP1 WGR-HD (Homo sapiens?;Homo sapiens?, UniProt P09874;P09874 1-366;527-786, del97-206|del663-676); assay: X-ray crystallography
# PARP1 V687A/E688A [3] = target: T2, PARP1 V687A/E688A (UniProt P09874 1-1014, V687A;E688A); assay: fluorescence polarization
# PARP1 L713F [4] = target: T3, PARP1 L713F (UniProt P09874 1-1014, L713F); assay: fluorescence polarization
# PARP1 Y569L = PARP1 Y569L (UniProt P09874 1-1014, Y569L); assay: fluorescence polarization
# PARP1 WT [5] = target: T4, PARP1 WT (UniProt P09874 1-1014); assay: fluorescence polarization
# PARP1 ΔART [6] = target: T5, PARP1 ΔART (UniProt P09874 1-786); assay: fluorescence polarization
# PARP1 ΔV687-E688 (ΔVE) [7] = target: T6, PARP1 ΔV687-E688 (ΔVE) (UniProt P09874 1-1014, del687-688); assay: fluorescence polarization
# PARP1 G558L [8] = target: T7, PARP1 G558L (UniProt P09874 1-1014, G558L); assay: fluorescence polarization
# PARP1 G558V [9] = target: T8, PARP1 G558V (UniProt P09874 1-1014, G558V); assay: fluorescence polarization
# PARP1 L698A/L701A [10] = target: T9, PARP1 L698A/L701A (UniProt P09874 1-1014, L698A;L701A); assay: fluorescence polarization
# PARP1 M686G/V687P [11] = target: T10, PARP1 M686G/V687P (UniProt P09874 1-1014, M686G;V687P); assay: fluorescence polarization
# PARP1 Y569A = PARP1 Y569A (UniProt P09874 1-1014, Y569A); assay: fluorescence polarization
# [12] = target: T1, PARP1 Zn1-Zn3 (linked);PARP1 WGR-HD; assay: fluorescence polarization
# PARP1 WGR-HD = PARP1 WGR-HD (UniProt P09874 527-786, del663-676); assay: fluorescence polarization
# PARP1 WGR-CAT = PARP1 WGR-CAT (UniProt P09874 518-1014); assay: fluorescence polarization
# PARP1 V687A/E688A [13] = target: T2, PARP1 V687A/E688A; assay: fluorescence polarization; remark: listed apart in the source
# PARP1 L713F [14] = target: T3, PARP1 L713F; assay: fluorescence polarization; remark: listed apart in the source
# PARP1 WT [15] = target: T4, PARP1 WT; assay: fluorescence polarization; remark: listed apart in the source
# PARP1 ΔART [16] = target: T5, PARP1 ΔART; assay: fluorescence polarization; remark: listed apart in the source
# PARP1 G558E = PARP1 G558E (UniProt P09874 1-1014, G558E); assay: fluorescence polarization
# PARP1 ΔV687-E688 (ΔVE) [17] = target: T6, PARP1 ΔV687-E688 (ΔVE); assay: fluorescence polarization; remark: listed apart in the source
# PARP1 G558L [18] = target: T7, PARP1 G558L; assay: fluorescence polarization; remark: listed apart in the source
# PARP1 G558V [19] = target: T8, PARP1 G558V; assay: fluorescence polarization; remark: listed apart in the source
# PARP1 L698A/L701A [20] = target: T9, PARP1 L698A/L701A; assay: fluorescence polarization; remark: listed apart in the source
# PARP1 M686G/V687P [21] = target: T10, PARP1 M686G/V687P; assay: fluorescence polarization; remark: listed apart in the source
# [22] = target: PARP1 Zn1-Zn3 (linked);PARP1 WGR-CAT ΔVE (Homo sapiens?;Homo sapiens?, UniProt P09874;P09874 1-366;518-1014, del97-206|del687-688); assay: X-ray crystallography
binder,measurement,setting,value
B1,binding result,[1],binds
B2,binding result,[2],binds
B3,Kd,PARP1 V687A/E688A [3],10.3 ± 3.6 nM
same,Kd,PARP1 L713F [4],6.2 ± 3.1 nM
same,Kd,PARP1 Y569L,40.8 ± 2.1 nM
same,Kd,PARP1 WT [5],8.4 ± 1 nM
same,Kd,PARP1 ΔART [6],15.4 ± 1.8 nM
same,Kd,PARP1 ΔV687-E688 (ΔVE) [7],8 ± 1.9 nM
same,Kd,PARP1 G558L [8],7.6 ± 1.2 nM
same,Kd,PARP1 G558V [9],10.2 ± 1.5 nM
same,Kd,PARP1 L698A/L701A [10],15.3 ± 7.8 nM
same,Kd,PARP1 M686G/V687P [11],4.8 ± 1.4 nM
same,Kd,PARP1 Y569A,20.6 ± 1.4 nM
same,Kd,[12],7 ± 2.4 nM
same,binding result,PARP1 WGR-HD,no binding
same,binding result,PARP1 WGR-CAT,no binding
same,Kd,PARP1 V687A/E688A [13],71.2 ± 10.7 nM
same,Kd,PARP1 L713F [14],21.3 ± 3.5 nM
same,Kd,PARP1 WT [15],59.7 ± 9.2 nM
same,Kd,PARP1 ΔART [16],12.1 ± 4.6 nM
same,Kd,PARP1 G558E,118 ± 23.2 nM
same,Kd,PARP1 ΔV687-E688 (ΔVE) [17],9.4 ± 1.3 nM
same,Kd,PARP1 G558L [18],57.2 ± 5.8 nM
same,Kd,PARP1 G558V [19],66.7 ± 7.4 nM
same,Kd,PARP1 L698A/L701A [20],64.4 ± 13.4 nM
same,Kd,PARP1 M686G/V687P [21],7.3 ± 2.3 nM
B4,binding result,[22],binds
